Like-named read-outs stand apart in the source and are kept apart here.
Key:
[1] = molecular target: T1, Dmc1 (Saccharomyces cerevisiae) (UniProt P25453); test: smFRET, RPA displacement; settings: internal Cy3 between T12 and T18
T1 sequence: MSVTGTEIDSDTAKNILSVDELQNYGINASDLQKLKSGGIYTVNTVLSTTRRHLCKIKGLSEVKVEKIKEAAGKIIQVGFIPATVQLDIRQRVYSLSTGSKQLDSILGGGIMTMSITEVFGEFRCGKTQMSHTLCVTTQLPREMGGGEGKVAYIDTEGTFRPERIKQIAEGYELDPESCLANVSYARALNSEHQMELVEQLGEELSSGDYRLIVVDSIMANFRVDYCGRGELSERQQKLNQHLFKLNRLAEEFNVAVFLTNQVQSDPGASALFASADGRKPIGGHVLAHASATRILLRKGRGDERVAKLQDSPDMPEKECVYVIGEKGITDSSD

[2] = molecular target: T2, Dmc1;Mei5-Sae3 complex (Saccharomyces cerevisiae;Saccharomyces cerevisiae) (UniProt P25453+P32489+P89114); test: smFRET + GFP colocalization; settings: internal Cy3 between T12 and T21
T2 sequence 1: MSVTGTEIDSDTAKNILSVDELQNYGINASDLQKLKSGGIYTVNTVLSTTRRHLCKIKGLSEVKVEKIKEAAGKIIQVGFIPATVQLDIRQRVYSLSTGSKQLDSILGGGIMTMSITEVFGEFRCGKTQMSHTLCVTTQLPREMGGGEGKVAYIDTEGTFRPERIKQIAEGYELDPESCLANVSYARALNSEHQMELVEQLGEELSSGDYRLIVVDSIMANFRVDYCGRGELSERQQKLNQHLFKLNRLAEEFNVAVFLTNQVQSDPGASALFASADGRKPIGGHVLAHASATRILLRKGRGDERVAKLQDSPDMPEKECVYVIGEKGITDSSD
T2 sequence 2: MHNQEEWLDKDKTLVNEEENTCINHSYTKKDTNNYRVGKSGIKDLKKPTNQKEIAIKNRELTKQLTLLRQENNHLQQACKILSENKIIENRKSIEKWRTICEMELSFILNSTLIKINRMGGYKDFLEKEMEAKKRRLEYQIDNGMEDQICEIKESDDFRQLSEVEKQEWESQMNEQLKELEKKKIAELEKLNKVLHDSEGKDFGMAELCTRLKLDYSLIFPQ
T2 sequence 3: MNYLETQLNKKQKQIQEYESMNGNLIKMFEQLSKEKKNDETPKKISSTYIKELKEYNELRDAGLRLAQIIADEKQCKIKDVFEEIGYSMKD

[3] = molecular target: T3, Dmc1 (Saccharomyces cerevisiae, UniProt P25453 1-334); test: smFRET
T3 sequence: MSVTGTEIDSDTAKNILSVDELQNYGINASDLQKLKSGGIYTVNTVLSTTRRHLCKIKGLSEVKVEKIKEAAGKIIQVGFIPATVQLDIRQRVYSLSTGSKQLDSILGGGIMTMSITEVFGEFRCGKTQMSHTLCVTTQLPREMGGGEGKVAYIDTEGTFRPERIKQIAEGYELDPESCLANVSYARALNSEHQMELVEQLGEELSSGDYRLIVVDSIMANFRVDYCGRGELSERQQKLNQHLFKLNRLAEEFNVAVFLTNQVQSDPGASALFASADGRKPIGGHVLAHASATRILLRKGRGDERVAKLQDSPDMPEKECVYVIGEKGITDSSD

[4] = molecular target: T4, RPA (Saccharomyces cerevisiae, UniProt P22336;P26754;P26755 1-621;1-273;1-122); test: smFRET
T4 sequence (P22336 whole entry, chain 1 of 3): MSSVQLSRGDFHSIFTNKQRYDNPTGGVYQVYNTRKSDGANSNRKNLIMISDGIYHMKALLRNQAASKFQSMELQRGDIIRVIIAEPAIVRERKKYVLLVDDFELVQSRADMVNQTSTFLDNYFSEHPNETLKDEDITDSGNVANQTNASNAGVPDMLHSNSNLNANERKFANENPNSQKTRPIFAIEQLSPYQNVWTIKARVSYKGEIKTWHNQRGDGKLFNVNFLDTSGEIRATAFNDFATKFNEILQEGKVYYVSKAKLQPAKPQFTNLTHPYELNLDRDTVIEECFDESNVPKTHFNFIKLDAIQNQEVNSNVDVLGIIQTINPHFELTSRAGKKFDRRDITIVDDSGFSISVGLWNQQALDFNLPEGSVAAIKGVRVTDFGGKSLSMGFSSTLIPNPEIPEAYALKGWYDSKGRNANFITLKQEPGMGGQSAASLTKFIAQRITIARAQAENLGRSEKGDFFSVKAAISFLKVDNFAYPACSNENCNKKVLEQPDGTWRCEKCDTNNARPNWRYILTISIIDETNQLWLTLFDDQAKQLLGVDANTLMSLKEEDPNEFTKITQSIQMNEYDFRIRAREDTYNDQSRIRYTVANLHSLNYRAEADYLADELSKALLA
T4 sequence (P26754 whole entry, chain 2 of 3): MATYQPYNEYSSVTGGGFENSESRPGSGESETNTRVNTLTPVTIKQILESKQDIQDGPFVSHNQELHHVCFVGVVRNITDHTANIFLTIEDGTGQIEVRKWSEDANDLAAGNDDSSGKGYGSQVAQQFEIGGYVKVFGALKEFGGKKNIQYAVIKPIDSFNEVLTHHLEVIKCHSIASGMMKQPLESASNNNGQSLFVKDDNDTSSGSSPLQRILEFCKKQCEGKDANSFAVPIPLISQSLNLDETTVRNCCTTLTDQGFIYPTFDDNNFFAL
T4 sequence (P26755 whole entry, chain 3 of 3): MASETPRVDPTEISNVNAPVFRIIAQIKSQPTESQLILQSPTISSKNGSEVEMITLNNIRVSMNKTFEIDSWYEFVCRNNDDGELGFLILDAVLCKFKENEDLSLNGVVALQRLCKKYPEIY

[5] = molecular target: T3, Dmc1; test: smFRET; remark: listed apart in the source
[6] = molecular target: T4, RPA; test: EMSA
[7] = molecular target: RPA-GFP (Rfa2-eGFP) (Saccharomyces cerevisiae, UniProt P22336;P26754;P26755 1-621;1-273;1-122); test: EMSA
RPA-GFP (Rfa2-eGFP), sequence (P22336 whole entry, chain 1 of 3): as the sequence (P22336 whole entry, chain 1 of 3) above
RPA-GFP (Rfa2-eGFP), sequence (P26754 whole entry, chain 2 of 3): as the sequence (P26754 whole entry, chain 2 of 3) above
RPA-GFP (Rfa2-eGFP), sequence (P26755 whole entry, chain 3 of 3): as the sequence (P26755 whole entry, chain 3 of 3) above

[8] = molecular target: T5, Dmc1;Mei5-Sae3 complex (Saccharomyces cerevisiae;Saccharomyces …, UniProt P25453;P32489;P89114 1-334;1-222;1-91, |); test: nuclease protection
T5 sequence 1: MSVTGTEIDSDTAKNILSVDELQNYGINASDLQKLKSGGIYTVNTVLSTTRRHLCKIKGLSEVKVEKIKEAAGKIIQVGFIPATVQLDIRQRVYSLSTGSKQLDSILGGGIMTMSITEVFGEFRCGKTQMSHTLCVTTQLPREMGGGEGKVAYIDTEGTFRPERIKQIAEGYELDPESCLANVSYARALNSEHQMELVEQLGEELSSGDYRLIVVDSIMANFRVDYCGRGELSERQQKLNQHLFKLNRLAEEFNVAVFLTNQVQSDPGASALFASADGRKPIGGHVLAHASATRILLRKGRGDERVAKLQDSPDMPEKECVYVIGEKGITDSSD
T5 sequence 2: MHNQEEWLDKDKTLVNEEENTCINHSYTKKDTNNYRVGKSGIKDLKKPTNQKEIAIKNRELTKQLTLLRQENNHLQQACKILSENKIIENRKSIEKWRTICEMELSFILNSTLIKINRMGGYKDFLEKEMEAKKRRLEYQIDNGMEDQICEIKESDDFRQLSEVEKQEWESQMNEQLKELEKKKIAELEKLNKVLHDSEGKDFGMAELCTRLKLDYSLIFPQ
T5 sequence 3: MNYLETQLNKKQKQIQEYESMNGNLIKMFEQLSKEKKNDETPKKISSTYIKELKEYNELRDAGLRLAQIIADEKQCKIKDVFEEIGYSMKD

[9] = molecular target: T5, Dmc1;Mei5-Sae3 complex; test: smFRET

**Q.** How did the Kd [1] turn out when “TGGCGACGGCAGCGAGGCTTTTTTTTTTTTTTTTTTTTTTTTTTTTTT / GCCTCGCTGCCGTCGCCA [dT12+18]” was run?
**A.** 1900 nM

**Q.** “TGGCGACGGCAGCGAGGCTTTTTTTTTTTTTTTTTTTTTTTTTTTTTTTTT / GCCTCGCTGCCGTCGCCA [dT12+21]” was tested. Which binding signal (% RPA displaced) [2] did it give?
**A.** 50

B1: dT7 (mixed)
DNA 1: TGGCGACGCAGCGAGGCTTTTTTT
DNA 2: GCCTCGCTGCCGTCGCCA
**Q.** With B1 as the molecule, how does the Kd [3] read?
**A.** 1720 ± 77 nM

B2: dT9 (mixed)
DNA 1: TGGCGAGCAGCGAGGCTTTTTTTTT
DNA 2: GCCTCGCTGCCGTCGCCA
**Q.** What does the source list for B2?
**A.** binding result [4]: binds; Kd [5]: 1400 ± 39 nM

B3: Oligo 4 (90-mer) (ssDNA)
DNA: AAATCAATCTAAAGTATATATGAGTAAACTTGGTCTGACAGTTACCAATGCTTAATCAGTGAGGCACCTATCTCAGCGATCTGTCTATTT
**Q.** What does the source list for B3?
**A.** binding result [6]: binds; binding result [7]: binds

B4: Oligo 1 (80-mer) (ssDNA)
DNA: TTATGTTCATTTTTTATATCCTTTACTTTATTTTCTCTGTTTATTCATTTACTTATTTTGTATTATCCTTATCTTATTTA
**Q.** Does B4 bind [8]?
**A.** binds

B5: dT13 (mixed)
DNA 1: TGGCGACGGCAGCGAGGCTTTTTTTTTTTTT
DNA 2: GCCTCGCTGCCGTCGCCA
**Q.** Does B5 bind [9]?
**A.** binds

From PMC11514449
